B1: GST-dAbp1 (natural protein)
chain: MASLDISDPDITKYIKLVQDGNPANRWIVFSYVPKSNNKIKFCDSGSGDLKELREELDDSSIRFAYIRFVINNMPKFVYIPWCGDGVNGPIKGAFSGHAIEFSKSFKPIHHQVNARSEEDIDEKAITAALNKATGASYDSGSKVQGATKGTFIPQSVSQGREAATKSNAEVKNVINKNDYNKIQESAEYWKQNQANKSEPAKPTRPEYNLSTERDDYWKQQQAEKQKQQQQQQQQQASRVNAPPPSRTVGNKFQEQVSKPTETAPPQPRPAPSKGSVLNRFPAATQQQQEPPAPSRPAAPVPSRVNKPAAPVQPVYQEPVHEEPQYEEPQYEEEQQQQYEEQPTEEQQYYQEEPQQQYEEQPTEEQQYYQEEQQQYEEQPTEEQQYYQEEQQQYEQPTEDQQYYQEEQQQYEQPAEEQYDQSGYLQAKALYDYNGENDGDLSFREGDIITILDQSDPDGWWQGSLPTGEQGFFPSNFVQQL
B2: GST-dAbp1-SH3 domain fusion protein (domain or fragment, Dictyostelium discoideum, UniProt Q557J6 426-481, looked up)
chain: QAKALYDYNGENDGDLSFREGDIITILDQSDPDGWWQGSLPTGEQGFFPSNFVQQL

Tests used:
[1] = target: rabbit muscle actin filaments (rabbit, UniProt P68135 1-377); assay: co-sedimentation
[2] = target: T1, His-tagged dAbp1-237-313 fragment (Dictyostelium discoideum, UniProt Q557J6 237-313); assay: pull-down
T1 sequence (looked up): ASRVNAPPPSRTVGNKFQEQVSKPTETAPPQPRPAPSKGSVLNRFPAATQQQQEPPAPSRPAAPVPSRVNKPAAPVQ

[3] = target: T2, histidine (His)-tagged full-length dAbp1 (Dictyostelium discoideum, UniProt Q557J6 1-481); assay: pull-down
T2 sequence (looked up): B1 chain

Binder | Kd in the presence of an equimolar amount of GST-PakB-1-120 [1] [µM] | binding result [2] | binding result [3]
B1 | 1.1 ± 0.4 | – | –
B2 | – | binds | binds

From publication PMC3708727 (Molecular Biology of the Cell, 2013)
